According to PMC4388176:

Target: T1, Reb1 (146-504) (Schizosaccharomyces pombe, UniProt Q9P6H9)
T1 sequence: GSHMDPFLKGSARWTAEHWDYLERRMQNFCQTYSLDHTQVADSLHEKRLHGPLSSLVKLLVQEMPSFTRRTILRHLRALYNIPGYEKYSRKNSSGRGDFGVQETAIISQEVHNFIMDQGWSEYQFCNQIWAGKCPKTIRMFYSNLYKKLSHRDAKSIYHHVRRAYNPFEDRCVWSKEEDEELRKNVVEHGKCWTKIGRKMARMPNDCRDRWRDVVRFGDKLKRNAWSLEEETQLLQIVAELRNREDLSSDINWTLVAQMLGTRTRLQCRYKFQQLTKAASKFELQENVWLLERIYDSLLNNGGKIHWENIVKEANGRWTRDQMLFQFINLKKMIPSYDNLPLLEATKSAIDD
Experiment: X-ray crystallography

B1: Ter3 26-mer (crystal) (dsDNA)
DNA 1: GTAAAAGGTAAGGGTAATGCACTTTT
DNA 2: CAAAAGTGCATTACCCTTACCTTTTA
- binding result: binds
